Here are results for 125 sequences from the supplement of paper PMC9112550, “Optimization of the antimicrobial peptide Bac7 by deep mutational scanning” (BMC Biology, 2022).
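Further: peptides expressed intracellularly from a pBAD plasmid library in pooled LB shake-flask culture, induced with 0.3% L-arabinose, DNA abundance read by NGS, three biological replicates, DESeq2 with apeglm shrinkage.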

This data set concerns Escherichia coli TOP10. Briefly: shrunken log2 fold change of peptide-encoding DNA abundance (4.5 h post-induction vs induction); higher = less antimicrobial activity (less host growth inhibition). As to conditions: time post-induction: 4.5 h; library: site-saturation at positions 5, 18, 19, 20.
As for RRIRIRPPRLPRPRPRPCIKPRP, the “shrunken log2 fold change” value was -0.185.
Turning to RRIRCRPPRLPRPRPRPKWMPRP, the “shrunken log2 fold change” value came out at 0.361.
Take RRIRVRPPRLPRPRPRPRLPPRP: the “shrunken log2 fold change” value came to 0.636.
RRIRVRPPRLPRPRPRPCHNPRP: the “shrunken log2 fold change” value was -0.362.
Then RRIRFRPPRLPRPRPRPDIFPRP, with -0.396.
Turning to RRIRGRPPRLPRPRPRPALKPRP, the “shrunken log2 fold change” value is 0.504.
Turning to RRIRYRPPRLPRPRPRPSTMPRP, the “shrunken log2 fold change” value is -0.434.
Take RRIRDRPPRLPRPRPRPAPCPRP: the “shrunken log2 fold change” value was 0.658.
With RRIRARPPRLPRPRPRPNEIPRP, the “shrunken log2 fold change” value is -0.179.
Consider RRIRMRPPRLPRPRPRPCMNPRP, for which the “shrunken log2 fold change” value is -0.217.
RRIRMRPPRLPRPRPRPTKQPRP: the “shrunken log2 fold change” value came to 0.296.
RRIRSRPPRLPRPRPRPQAVPRP: the “shrunken log2 fold change” value amounted to 0.197.
On to RRIRPRPPRLPRPRPRPWYSPRP, for which the “shrunken log2 fold change” value was -0.22.
Regarding RRIRERPPRLPRPRPRPQWCPRP, the “shrunken log2 fold change” value is -0.262.
On to RRIRKRPPRLPRPRPRPNTEPRP, for which the “shrunken log2 fold change” value came out at 0.0416.
In the case of RRIRARPPRLPRPRPRPLNGPRP, the “shrunken log2 fold change” value is 0.0986.
Regarding RRIRIRPPRLPRPRPRPYLDPRP, the “shrunken log2 fold change” value is -1.02.
On to RRIRMRPPRLPRPRPRPTTIPRP, for which the “shrunken log2 fold change” value was -0.198.
On to RRIRGRPPRLPRPRPRPTDRPRP, for which the “shrunken log2 fold change” value is 0.0231.
In the case of RRIRCRPPRLPRPRPRPKEPPRP, the “shrunken log2 fold change” value came out at 0.302.
As to RRIRLRPPRLPRPRPRPIWLPRP, the “shrunken log2 fold change” value came out at 0.132.
Regarding RRIRERPPRLPRPRPRPPHKPRP, the “shrunken log2 fold change” value turned out to be 0.0221.
Then RRIRIRPPRLPRPRPRPRSQPRP, with 0.085; and RRIRKRPPRLPRPRPRPPPQPRP, with 1.02; and RRIRKRPPRLPRPRPRPMFHPRP, with -0.144.
For RRIRLRPPRLPRPRPRPNQIPRP, the “shrunken log2 fold change” value was -0.253.
With RRIRNRPPRLPRPRPRPDFSPRP, the “shrunken log2 fold change” value is -0.0911.
On to RRIRMRPPRLPRPRPRPSEKPRP, for which the “shrunken log2 fold change” value came to 0.938.
On to RRIRKRPPRLPRPRPRPQLPPRP, for which the “shrunken log2 fold change” value was -0.105.
As to RRIRYRPPRLPRPRPRPRTRPRP, the “shrunken log2 fold change” value was -0.0272.
Consider RRIRGRPPRLPRPRPRPRFIPRP, for which the “shrunken log2 fold change” value stood at 0.123.
Turning to RRIRKRPPRLPRPRPRPDEAPRP, the “shrunken log2 fold change” value worked out at 3.09.
In the case of RRIRHRPPRLPRPRPRPHIIPRP, the “shrunken log2 fold change” value was -0.192.
Then RRIRFRPPRLPRPRPRPMIPPRP, with 0.00508; and RRIRERPPRLPRPRPRPQLPPRP, with 0.021; and RRIRCRPPRLPRPRPRPFHDPRP, with -0.727.
For the sequence RRIRDRPPRLPRPRPRPIFYPRP, the “shrunken log2 fold change” value was 0.0295.
Then RRIRWRPPRLPRPRPRPHPIPRP, with 0.062; and RRIRCRPPRLPRPRPRPIPDPRP, with 0.106; and RRIRPRPPRLPRPRPRPPREPRP, with 0.678.
For the sequence RRIRDRPPRLPRPRPRPQECPRP, the “shrunken log2 fold change” value was 0.0795.
As for RRIRERPPRLPRPRPRPYQSPRP, the “shrunken log2 fold change” value was -0.0109.
As for RRIRSRPPRLPRPRPRPSFEPRP, the figure is 0.0257; as for RRIRLRPPRLPRPRPRPHWHPRP, -0.249; as for RRIRDRPPRLPRPRPRPFFWPRP, 0.504.
With RRIRDRPPRLPRPRPRPMEEPRP, the “shrunken log2 fold change” value is -0.00277.
Regarding RRIRPRPPRLPRPRPRPQAEPRP, the “shrunken log2 fold change” value was 0.113.
Consider RRIRWRPPRLPRPRPRPYAWPRP, for which the “shrunken log2 fold change” value was determined as 0.122.
As for RRIRIRPPRLPRPRPRPPSTPRP, the “shrunken log2 fold change” value amounted to 0.0126.
Consider RRIRCRPPRLPRPRPRPESKPRP, for which the “shrunken log2 fold change” value amounted to 0.198.
Take RRIRYRPPRLPRPRPRPEQDPRP: the “shrunken log2 fold change” value is -0.0203.
As for RRIRFRPPRLPRPRPRPWCYPRP, the figure is -0.751.
Turning to RRIRERPPRLPRPRPRPDVGPRP, the “shrunken log2 fold change” value is -0.59.
For RRIRQRPPRLPRPRPRPERSPRP, the “shrunken log2 fold change” value came out at 0.0688.
As for RRIRVRPPRLPRPRPRPPPRPRP, the “shrunken log2 fold change” value is 1.03.
Then RRIRPRPPRLPRPRPRPATQPRP, with 0.133; and RRIRNRPPRLPRPRPRPLGHPRP, with -0.262.
With RRIRRRPPRLPRPRPRPNINPRP, the “shrunken log2 fold change” value was -0.156.
For the sequence RRIRMRPPRLPRPRPRPDLLPRP, the “shrunken log2 fold change” value was 2.73.
Consider RRIRRRPPRLPRPRPRPPAAPRP, for which the “shrunken log2 fold change” value was 0.947.
In the case of RRIRMRPPRLPRPRPRPHTTPRP, the “shrunken log2 fold change” value is -0.0908.
Consider RRIRCRPPRLPRPRPRPSCRPRP, for which the “shrunken log2 fold change” value was -0.685.
RRIRERPPRLPRPRPRPFFYPRP: the “shrunken log2 fold change” value is -0.258.
With RRIRNRPPRLPRPRPRPYKTPRP, the “shrunken log2 fold change” value was -0.0391.
As for RRIRSRPPRLPRPRPRPLDDPRP, the figure is -0.0921; as for RRIRSRPPRLPRPRPRPIVMPRP, 0.0137; as for RRIRERPPRLPRPRPRPILCPRP, -0.0244.
As for RRIRHRPPRLPRPRPRPMRWPRP, the “shrunken log2 fold change” value is 0.396.
Consider RRIRDRPPRLPRPRPRPARYPRP, for which the “shrunken log2 fold change” value came out at 0.0754.
For RRIRQRPPRLPRPRPRPYIHPRP, the “shrunken log2 fold change” value is -0.912.
In the case of RRIRHRPPRLPRPRPRPTLVPRP, the “shrunken log2 fold change” value is -0.233.
With RRIRLRPPRLPRPRPRPIWGPRP, the “shrunken log2 fold change” value was found to be 0.112.
Then RRIRMRPPRLPRPRPRPWWDPRP, with 0.142.
Take RRIRHRPPRLPRPRPRPRERPRP: the “shrunken log2 fold change” value turned out to be 0.392.
RRIRVRPPRLPRPRPRPLLMPRP: the “shrunken log2 fold change” value is -0.325.
For RRIRVRPPRLPRPRPRPYSCPRP, the “shrunken log2 fold change” value is -0.00112.
With RRIRLRPPRLPRPRPRPRSGPRP, the “shrunken log2 fold change” value turned out to be 0.122.
Consider RRIRCRPPRLPRPRPRPGEFPRP, for which the “shrunken log2 fold change” value is -0.179.
For the sequence RRIRIRPPRLPRPRPRPCVWPRP, the “shrunken log2 fold change” value was -0.242.
With RRIRDRPPRLPRPRPRPECWPRP, the “shrunken log2 fold change” value came out at 1.84.
As for RRIRDRPPRLPRPRPRPKPCPRP, the figure is 0.0155; as for RRIRTRPPRLPRPRPRPWINPRP, 0.0189.
For the sequence RRIRPRPPRLPRPRPRPMQCPRP, the “shrunken log2 fold change” value was 0.00596.
RRIRWRPPRLPRPRPRPRNDPRP: the “shrunken log2 fold change” value worked out at 0.126.
Take RRIRFRPPRLPRPRPRPACFPRP: the “shrunken log2 fold change” value was found to be 0.0876.
Take RRIRNRPPRLPRPRPRPYMSPRP: the “shrunken log2 fold change” value was -0.019.
In the case of RRIRDRPPRLPRPRPRPDQKPRP, the “shrunken log2 fold change” value is -0.0052.
RRIRMRPPRLPRPRPRPSQGPRP: the “shrunken log2 fold change” value was 0.179.
Turning to RRIRMRPPRLPRPRPRPNAYPRP, the “shrunken log2 fold change” value stood at 0.311.
Consider RRIRCRPPRLPRPRPRPPTNPRP, for which the “shrunken log2 fold change” value turned out to be 0.248.
Turning to RRIRKRPPRLPRPRPRPIPYPRP, the “shrunken log2 fold change” value is -0.303.
For the sequence RRIRHRPPRLPRPRPRPQQQPRP, the “shrunken log2 fold change” value was -0.158.
For the sequence RRIRMRPPRLPRPRPRPSIPPRP, the “shrunken log2 fold change” value was -0.316.
As for RRIRERPPRLPRPRPRPKGFPRP, the figure is 0.0527.
As to RRIRGRPPRLPRPRPRPDRFPRP, the “shrunken log2 fold change” value came out at 0.375.
As for RRIRQRPPRLPRPRPRPSIPPRP, the figure is -0.751.
For RRIRDRPPRLPRPRPRPHLDPRP, the “shrunken log2 fold change” value is -0.131.
On to RRIRVRPPRLPRPRPRPSQRPRP, for which the “shrunken log2 fold change” value was -0.0119.
RRIRSRPPRLPRPRPRPIDMPRP: the “shrunken log2 fold change” value was -0.00448.
For the sequence RRIRPRPPRLPRPRPRPINIPRP, the “shrunken log2 fold change” value is -1.15.
Turning to RRIRVRPPRLPRPRPRPNMEPRP, the “shrunken log2 fold change” value was -0.151.
Then RRIRYRPPRLPRPRPRPQPHPRP, with -0.348.
As for RRIRERPPRLPRPRPRPFDIPRP, the “shrunken log2 fold change” value was -0.103.
For the sequence RRIRTRPPRLPRPRPRPAYVPRP, the “shrunken log2 fold change” value was -0.27.
Then RRIRWRPPRLPRPRPRPHTNPRP, with -0.283; and RRIRVRPPRLPRPRPRPIHFPRP, with -0.0962.
With RRIRARPPRLPRPRPRPSFWPRP, the “shrunken log2 fold change” value is 0.354.
On to RRIRRRPPRLPRPRPRPFYQPRP, for which the “shrunken log2 fold change” value is -0.46.
As for RRIRWRPPRLPRPRPRPNMYPRP, the figure is -0.436.
Regarding RRIRMRPPRLPRPRPRPMCGPRP, the “shrunken log2 fold change” value is 0.00224.
In the case of RRIRQRPPRLPRPRPRPLMNPRP, the “shrunken log2 fold change” value is -0.131.
Consider RRIRSRPPRLPRPRPRPKRPPRP, for which the “shrunken log2 fold change” value stood at 0.413.
With RRIRDRPPRLPRPRPRPLEAPRP, the “shrunken log2 fold change” value worked out at 0.679.
RRIRFRPPRLPRPRPRPRQLPRP: the “shrunken log2 fold change” value is -0.0618.
In the case of RRIRSRPPRLPRPRPRPMIQPRP, the “shrunken log2 fold change” value amounted to 0.0624.
Then RRIRLRPPRLPRPRPRPRLCPRP, with 0.35.
Take RRIRKRPPRLPRPRPRPITDPRP: the “shrunken log2 fold change” value is -0.128.
RRIRWRPPRLPRPRPRPPAPPRP: the “shrunken log2 fold change” value was found to be 1.03.
In the case of RRIRHRPPRLPRPRPRPDDQPRP, the “shrunken log2 fold change” value is -0.0481.
On to RRIRTRPPRLPRPRPRPDVIPRP, for which the “shrunken log2 fold change” value was -0.0157.
Consider RRIRMRPPRLPRPRPRPGTIPRP, for which the “shrunken log2 fold change” value was 0.228.
With RRIRGRPPRLPRPRPRPNLLPRP, the “shrunken log2 fold change” value worked out at 0.485.
For the sequence RRIRHRPPRLPRPRPRPNSLPRP, the “shrunken log2 fold change” value is -0.0817.
With RRIRERPPRLPRPRPRPLECPRP, the “shrunken log2 fold change” value was -0.498.
On to RRIRNRPPRLPRPRPRPKSPPRP, for which the “shrunken log2 fold change” value stood at 0.205.
